Experiments:
[1] = biological target: PDGFRα-Fc Site 3 mutant (E208N, S210S as printed) (human) (UniProt P16234); assay: BLI (Octet Red); PDGFRα-Fc captured on anti-human Fc sensors, trimer as soluble analyte
[2] = biological target: T1, PDGFRα-Fc Site 1 mutant (E52N, E54S) (human, UniProt P16234 24-528); assay: as above
T1 construct: range 1-528; Mutations meant to introduce an N-linked glycosylation site; not shown: C-terminal human IgG1 (Fc) tag

[3] = biological target: T2, PDGFRα-Fc wild type (human PDGFRα (1-528) with C-terminal human IgG1 Fc tag) (human, UniProt P16234 24-528); assay: as above
T2 construct: range 1-528; also called WT; PDGFRα WT; not shown: C-terminal human IgG1 (Fc) tag

[4] = biological target: T3, PDGFRα-Fc Site 4 mutant (E263N, K265S) (human, UniProt P16234 24-528); assay: as above
T3 construct: range 1-528; Mutations meant to introduce an N-linked glycosylation site; not shown: C-terminal human IgG1 (Fc) tag

[5] = biological target: T4, PDGFRα-Fc Site 2 mutant (E108N, N110S) (human, UniProt P16234 24-528); assay: as above
T4 construct: range 1-528; Mutations meant to introduce an N-linked glycosylation site; not shown: C-terminal human IgG1 (Fc) tag

[6] = biological target: T2, PDGFRα-Fc wild type (human PDGFRα …); assay: BLI with PDGFRα-Fc (FIG. 7D)

T2 sequence (P16234 24-528 limits assumed, form in doubt): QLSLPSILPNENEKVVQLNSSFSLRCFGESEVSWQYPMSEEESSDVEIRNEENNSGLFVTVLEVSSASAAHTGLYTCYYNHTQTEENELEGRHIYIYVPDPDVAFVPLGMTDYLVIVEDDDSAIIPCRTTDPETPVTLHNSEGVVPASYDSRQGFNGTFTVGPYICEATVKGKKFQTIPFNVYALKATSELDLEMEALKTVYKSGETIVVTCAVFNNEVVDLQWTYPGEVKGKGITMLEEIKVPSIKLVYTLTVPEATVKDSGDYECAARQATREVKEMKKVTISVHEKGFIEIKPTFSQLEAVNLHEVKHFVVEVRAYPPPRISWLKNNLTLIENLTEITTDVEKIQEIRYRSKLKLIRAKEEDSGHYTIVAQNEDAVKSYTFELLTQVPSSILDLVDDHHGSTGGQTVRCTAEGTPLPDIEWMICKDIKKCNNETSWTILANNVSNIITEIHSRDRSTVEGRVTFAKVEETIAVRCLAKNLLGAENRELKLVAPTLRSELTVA
Sequence of PDGFRα-Fc Site 3 mutant (E208N, S210S as printed) (human) (P16234 24-528, stated change not applied): as the sequence (P16234 24-528 limits assumed, form in doubt) above
T4 sequence (P16234 24-528 E108N/N110S limits assumed, form in doubt): as the sequence (P16234 24-528 limits assumed, form in doubt) above, with E85N, N87S counted along it
T1 sequence (P16234 24-528 E52N/E54S limits assumed, form in doubt): as the sequence (P16234 24-528 limits assumed, form in doubt) above, with E29N, E31S counted along it
T3 sequence (P16234 24-528 E263N/K265S limits assumed, form in doubt): as the sequence (P16234 24-528 limits assumed, form in doubt) above, with E240N, K242S counted along it

## HCMV gHgLgO trimer (soluble region, wild-type gO) (from UniProt P12824 24-716; Q68672 31-278)
[1]
  Kd: 21.5 nM

B1: HCMV gHgLgO trimer (soluble region, wild-type gO) (other)
chain 1: […]
chain 2: VAVSVAPTAAEKVPAECPELTRRCLLGEVFQGDKYESWLRPLVNVTGRNGPLSQLIRYRPVTPEAANSVLLDDAFLDTLALLYNNPDQLRALLTLLSSDTAPRWMTVMRGYSECGDGSPAVYTCVDDLCRGYDLTRLSYGRSIFTEHVLGFELVPPSLFNVVVAIRNEATRTNRAVRLPVSTAAAPEGITLFYGLYNAVKEFCLRHQLDPPLLRHLDKYYAGLPPELKQTRVNLPAHSRYGPQAVDAR
chain 3: […]
notes: Expressed in Expi293 cells; gH, gL and gO are disulfide-linked; also called HCMV trimer; gHgLgO complex; not shown: C-terminal Myc-Avi-His tag; C-terminal Twin-Strep-tag
[2]
  Kd: 16.5 nM
[3]
  Kd: 2.25 nM
[4]
  Kd: 4.65 nM
[5]
  Kd: 2.7 nM

B2: HCMV gHgLgO trimer with charge mutations at gO (M84R, F111R, R117E, F136R, R212E, R230E, R234E, R336E, F342E, A351R, N358R) (other)
chain 1: […]
chain 2: B1 chain 2
chain 3: […]
notes: also called Trimermut; TrimerMUT; not shown: C-terminal Myc-Avi-His tag; C-terminal Twin-Strep-tag
[6]
  Kd: 42500 nM
  fold reduction of binding against Trimer-WT: ~10000 times
